From publication doi:10.1101/788646

Target: SlCGH1, choloylglycine hydrolase homolog Shew_0681 from Shewanella loihica PV-4 (Shewanella loihica PV-4)
Assay: SEC + other: MALDI-TOF-MS

In the case of “SlCGH1, choloylglycine hydrolase homolog Shew_0681 from Shewanella loihica PV-4 (enzyme)”, the stoichiometry N is reported as 2.
